Measurements taken from patent US8642284.

How the values were obtained:
[1] = biological target: histone H3 (calf thymus), intact protein (UniProt P68432)
[2] = system: histone H1 (calf thymus)
[3] = system: unacetylated histone H3 N-terminal tail peptide (residues 1-20)
[4] = system: histone H3 N-terminal tail peptide (residues 1-20) di-acetylated at lysines 9 and 14
[5] = biological target: histone H2B (calf thymus) (UniProt P62808)
[6] = biological target: histone H4 (calf thymus) (UniProt P62803)
[7] = biological target: histone H2A (calf thymus) (UniProt P0C0S9)

recombinant 6xHis-tagged full-length yeast Sir2p
ADP-ribosylation (transfer of 32P from NAD, SDS-PAGE) [1]: transferred radioactive ADP-ribose to H2B and H3 | transfer of 32P from NAD (SDS-PAGE) [1]: 32P was transferred from NAD to intact histone H3 | ADP-ribosylation (transfer of 32P from NAD, SDS-PAGE) [2]: but not to H1, H2A and H4 | ADP-ribosylation of peptide (32P-NAD, thin layer chromatography) [3]: modified only the diacetylated H3 tail peptide (unacetylated peptide not modified) | ADP-ribosylation of peptide (32P-NAD, thin layer chromatography) [4]: Both the yeast and mouse Sir2 modified only the diacetylated H3 tail peptide | NAD-dependent deacetylation (HPLC, areas under peaks 1, 2 and 4) [4]: at least 27% of the input peptide was deacetylated by Sir2p | deacetylation of Lys9 in peak 4 (Edman sequencing) [4]: about 23% of Lys9 | deacetylation of Lys14 in peak 4 (Edman sequencing) [4]: 27% of Lys 14 | ADP-ribosylation (transfer of 32P from NAD, SDS-PAGE) [5]: transferred radioactive ADP-ribose to H2B and H3 | ADP-ribosylation (transfer of 32P from NAD, SDS-PAGE) [6]: but not to H1, H2A and H4 | ADP-ribosylation (transfer of 32P from NAD, SDS-PAGE) [7]: but not to H1, H2A and H4
